{"source": "patent US8026218", "binders": {"B1": {"name": "TyrDAlaGlyPheNleProLeuTrpOBn(CF3)2 (peptide)", "peptide": "YAGFXPLW", "modifications": "here or on the partner: D-Ala at 2; Nle at 5 (written X); C-terminal O-3,5-Bzl(CF3)2 ester"}, "B2": {"name": "TyrDAlaGlyPheSer(OGlu)ProLeuTrpNHBn(CF3)2 (TY042) (peptide)", "peptide": "Y[dA]GFSPLW-{NH(3,5-(CF3)2-benzyl)}", "modifications": "not fully specified (residue 5); printed as TyrDAlaGlyPheSer(OGlu)ProLeuTrpNHBn(CF3)2"}}, "assay_in_all_cases": "cell-based or functional assay", "key": {"[1]": {"target": "δ opioid receptor of the mouse isolated vas deferens (mouse), P32300", "sequence (P32300 whole entry, stated change not applied)": "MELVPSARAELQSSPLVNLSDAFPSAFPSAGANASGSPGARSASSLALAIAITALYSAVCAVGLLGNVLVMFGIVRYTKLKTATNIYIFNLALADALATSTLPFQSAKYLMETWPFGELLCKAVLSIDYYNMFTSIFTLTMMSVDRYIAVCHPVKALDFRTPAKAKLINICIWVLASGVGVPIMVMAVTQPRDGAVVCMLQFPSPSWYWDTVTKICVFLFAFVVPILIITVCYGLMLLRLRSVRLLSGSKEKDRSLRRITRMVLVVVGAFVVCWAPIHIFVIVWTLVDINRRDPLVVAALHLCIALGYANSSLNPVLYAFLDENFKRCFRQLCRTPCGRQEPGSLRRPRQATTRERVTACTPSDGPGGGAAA"}, "[2]": {"target": "δ opioid receptor of the mouse isolated vas deferens (mouse) (UniProt P32300)", "sequence (P32300 whole entry, stated change not applied)": "as above"}, "[3]": {"target": "guinea pig NK1 receptor (guinea pig) (UniProt P30547)", "sequence (P30547 whole entry)": "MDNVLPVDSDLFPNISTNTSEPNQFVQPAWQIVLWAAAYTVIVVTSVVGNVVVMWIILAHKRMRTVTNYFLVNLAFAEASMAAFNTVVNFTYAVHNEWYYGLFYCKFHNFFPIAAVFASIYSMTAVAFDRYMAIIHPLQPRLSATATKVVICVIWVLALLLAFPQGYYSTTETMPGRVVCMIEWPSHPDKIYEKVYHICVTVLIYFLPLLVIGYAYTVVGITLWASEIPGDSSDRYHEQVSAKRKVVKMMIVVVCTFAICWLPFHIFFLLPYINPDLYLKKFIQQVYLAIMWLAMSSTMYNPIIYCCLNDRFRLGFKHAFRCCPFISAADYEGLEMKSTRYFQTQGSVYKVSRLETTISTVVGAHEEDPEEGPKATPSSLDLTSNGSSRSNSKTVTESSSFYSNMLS"}}, "note": "Bridge positions count the residues as written; N and C are the ends. Square brackets hold non-standard residues; d marks the D form. Primed or numbered codes have the meaning given here. Ends that are not written are not given here. * marks the point of attachment. O‑Bzl(CF3)2 = C-terminal bis(trifluoromethyl)benzyl ester; Glc = O-glucosyl on Ser side chain (Ser(OGlu)/Ser(OGlc)); NH(3,5-(CF3)2-benzyl) = FC(F)(F)c1cc(CN*)cc(C(F)(F)F)c1; OBzl(3,5-(CF3)2) = FC(F)(F)c1cc(CO*)cc(C(F)(F)F)c1; Glc″ = glucosyl on the serine side-chain oxygen; NH‑Bn(CF3)2 = C-terminal Bn(CF3)2 amide; OBn(OMe)2 = C-terminal OBn(OMe)2 ester; Dmt = Cc1cc(O)cc(C)c1C[C@H](N)C(=O)O; NMe(benzyl) = CN(Cc1ccccc1)*; Nle = CCCC[C@H](N)C(=O)O; NHBn = c1ccc(CN*)cc1", "data": [{"binder": "[Dmt][dA]GFMPLW-{OBzl(3,5-(CF3)2)}", "note": "[DmtDAlaGlyPheMetProLeuTrpOBn(CF3)2 (TY033)]", "values": [{"measurement": "MVD opioid(delta) agonist IC50", "setting": "[1]", "value": 1.27, "unit": "nM"}]}, {"binder": "Y[dA]GFMPLW-{OBn(OMe)2}", "note": "[TyrDAlaGlyPheMetProLeuTrpOBn(OMe)2 (TY030)]", "values": [{"measurement": "MVD opioid(delta) agonist IC50", "setting": "[1]", "value": 12, "unit": "nM"}]}, {"binder": "Y[dA]GFMPLW-{NH(3,5-(CF3)2-benzyl)}", "note": "[TyrDAlaGlyPheMetProLeuTrpNHBn(CF3)2 (TY027)]", "values": [{"measurement": "MVD opioid(delta) agonist IC50", "setting": "[1]", "value": 14.5, "unit": "nM"}]}, {"binder": "Y[dC]GF[dC]PLW-{NH(3,5-(CF3)2-benzyl)} (disulfide 2-5)", "note": "[Tyr[DCysGlyPheDCys]ProLeuTrpNHBn(CF3)2]", "values": [{"measurement": "MVD (δ) IC50", "setting": "[1]", "value": 8.3, "unit": "nM"}]}, {"binder": "[Dmt][dA]GFMPLW-{OBzl(3,5-(CF3)2)}", "note": "[DmtDAlaGlyPheMetProLeuTrpOBn(CF3)2]", "values": [{"measurement": "MVD IC50", "setting": "[1]", "value": 1.3, "unit": "nM"}]}, {"binder": "[Dmt][dA]GFMPLW-NHBn", "note": "[DmtDAlaGlyPheMetProLeuTrpNHBn]", "values": [{"measurement": "MVD IC50", "setting": "[1]", "value": 6.9, "unit": "nM"}]}, {"binder": "Y[dC]GF[Nle]PCW-{NH(3,5-(CF3)2-benzyl)} (disulfide 2-7)", "note": "[Tyr[DCysGlyPheNleProCys]TrpNHBn(CF3)2 (TY035)]", "values": [{"measurement": "MVD opioid(delta) agonist IC50", "setting": "[1]", "value": 84.7, "unit": "nM"}]}, {"binder": "Y[dA]GFW-{OBzl(3,5-(CF3)2)}", "note": "[Tyr-D-Ala-Gly-Phe-Trp-O-3′,5′(CF3)2-Bzl (NP36)]", "values": [{"measurement": "MVD δ-agonist IC50", "setting": "[2]", "value": 43.1, "unit": "nM"}, {"measurement": "GPI SP-antagonist Ke", "setting": "[3]", "value": 38, "unit": "nM"}]}, {"binder": "[Dmt][dA]GF[Nle]PS(Glc)W-{NH‑Bn(CF3)2}", "note": "[DmtDAlaGlyPheNleProSer(OGlu)TrpNHBn(CF3)2 (TY056)]", "values": [{"measurement": "MVD opioid(delta) agonist IC50", "setting": "[1]", "value": 3.62, "unit": "nM"}]}, {"binder": "Y[dA]GFS(Glc)PLW-{NH(3,5-(CF3)2-benzyl)}", "note": "[TyrDAlaGlyPheSer(OGlu)ProLeuTrpNHBn(CF3)2]", "values": [{"measurement": "MVD IC50", "setting": "[1]", "value": 109, "unit": "nM"}]}, {"binder": "Y[dA]GFGPLW-{OBzl(3,5-(CF3)2)}", "note": "[TyrDAlaGlyPheGlyProLeuTrpOBn(CF3)2 (TY006)]", "values": [{"measurement": "MVD opioid(delta) agonist IC50", "setting": "[1]", "value": 172, "unit": "nM"}]}, {"binder": "Y[dC]GF[dC]PLW-{NH(3,5-(CF3)2-benzyl)} (disulfide 2-5)", "note": "[Tyr[DCysGlyPheDCys]ProLeuTrpNHBn(CF3)2 (TY037)]", "values": [{"measurement": "MVD opioid(delta) agonist IC50", "setting": "[1]", "value": 8.28, "unit": "nM"}]}, {"binder": "H-Y[dA]GFGPLW-{OBzl(3,5-(CF3)2)} (also: TFA salt)", "note": "[H-Tyr-D-Ala-Gly-Phe-Gly-Pro-Leu-Trp-O-3,5-Bzl(CF3)2]", "values": [{"measurement": "MVD (δ) opioid agonist IC50", "setting": "[1]", "value": 172, "unit": "nM"}]}, {"binder": "Y[dA]GFMPLW-{OBzl(3,5-(CF3)2)}", "note": "[TyrDAlaGlyPheMetProLeuTrpOBn(CF3)2 (TY005)]", "values": [{"measurement": "MVD opioid(delta) agonist IC50", "setting": "[1]", "value": 22.3, "unit": "nM"}]}, {"binder": "B1", "values": [{"measurement": "MVD IC50", "setting": "[1]", "value": 16.8, "unit": "nM"}]}, {"binder": "Y[dA]GFMPLW-{NMe(benzyl)}", "note": "[TyrDAlaGlyPheMetProLeuTrpNMeBn (TY026)]", "values": [{"measurement": "MVD opioid(delta) agonist IC50", "setting": "[1]", "value": 7.89, "unit": "nM"}]}, {"binder": "[Dmt][dA]GFMPLW-NHBn", "note": "[DmtDAlaGlyPheMetProLeuTrpNHBn (TY034)]", "values": [{"measurement": "MVD opioid(delta) agonist IC50", "setting": "[1]", "value": 6.85, "unit": "nM"}]}, {"binder": "Y[dA]GFLPLW-{OBzl(3,5-(CF3)2)}", "note": "[TyrDAlaGlyPheLeuProLeuTrpOBn(CF3)2]", "values": [{"measurement": "MVD IC50", "setting": "[1]", "value": 101, "unit": "nM"}]}, {"binder": "Y[dA]GFLPLW-{OBzl(3,5-(CF3)2)}", "note": "[TyrDAlaGlyPheLeuProLeuTrpOBn(CF3)2 (TY004)]", "values": [{"measurement": "MVD opioid(delta) agonist IC50", "setting": "[1]", "value": 101, "unit": "nM"}]}, {"binder": "Y[dA]GFMPLW-{OBzl(3,5-(CF3)2)}", "note": "[TyrDAlaGlyPheMetProLeuTrpOBn(CF3)2]", "values": [{"measurement": "MVD (δ) IC50", "setting": "[1]", "value": 22, "unit": "nM"}, {"measurement": "MVD IC50", "setting": "[1]", "value": 22.3, "unit": "nM"}]}, {"binder": "H-Y[dA]GFMPLW-{OBzl(3,5-(CF3)2)} (also: TFA salt)", "note": "[H-Tyr-D-Ala-Gly-Phe-Met-Pro-Leu-Trp-O-3,5-Bzl(CF3)2]", "values": [{"measurement": "MVD (δ) opioid agonist IC50", "setting": "[1]", "value": 22.3, "unit": "nM"}]}, {"binder": "Y[dA]GFMPLW-OH", "note": "[TyrDAlaGlyPheMetProLeuTrpOH (TY043)]", "values": [{"measurement": "MVD opioid(delta) agonist IC50", "setting": "[1]", "value": 8.18, "unit": "nM"}]}, {"binder": "Y[dA]GFMW-{O‑Bzl(CF3)2}", "note": "[Tyr-DAla-Gly-Phe-Met-Trp-O-Bzl(CF3)2 (NP38)]", "values": [{"measurement": "MVD δ-agonist IC50", "setting": "[2]", "value": 9.07, "unit": "nM"}, {"measurement": "GPI/LMMP SP antagonist Ke", "setting": "[3]", "value": 2, "unit": "nM"}]}, {"binder": "Y[dA]GFLW-{O‑Bzl(CF3)2}", "note": "[Tyr-DAla-Gly-Phe-Leu-Trp-O-Bzl(CF3)2 (NP37)]", "values": [{"measurement": "MVD δ-agonist IC50", "setting": "[2]", "value": 25.7, "unit": "nM"}]}, {"binder": "B2", "values": [{"measurement": "MVD opioid(delta) agonist IC50", "setting": "[1]", "value": 109, "unit": "nM"}]}, {"binder": "H-Y[dA]GFLPLW-{OBzl(3,5-(CF3)2)} (also: TFA salt)", "note": "[H-Tyr-D-Ala-Gly-Phe-Leu-Pro-Leu-Trp-O-3,5-Bzl(CF3)2]", "values": [{"measurement": "MVD (δ) opioid agonist IC50", "setting": "[1]", "value": 101, "unit": "nM"}]}, {"binder": "Y[dA]GF[Nle]S(Glc″)LW-{NH‑Bn(CF3)2}", "note": "[TyrDAlaGlyPheNleSer(OGlu)LeuTrpNHBn(CF3)2 (TY044)]", "values": [{"measurement": "MVD opioid(delta) agonist IC50", "setting": "[1]", "value": 18, "unit": "nM"}]}, {"binder": "YAGFXPLW (here or on the partner: D-Ala at 2; Nle at 5 (X); C-terminal NH-Bn(CF3)2 amide)", "note": "[TyrDAlaGlyPheNleProLeuTrpNHBn(CF3)2 (TY045)]", "values": [{"measurement": "MVD opioid(delta) agonist IC50", "setting": "[1]", "value": 13.6, "unit": "nM"}]}, {"binder": "Y[dA]GF[Nle]PS(Glc)W-{NH(3,5-(CF3)2-benzyl)}", "note": "[TyrDAlaGlyPheNleProSer(OGlu)TrpNHBn(CF3)2]", "values": [{"measurement": "MVD IC50", "setting": "[1]", "value": 12.7, "unit": "nM"}]}]}
